From patent US20230074436A1 (DENALI THERAPEUTICS, published 2023) come the findings set out here.

In general, Kd refers to the free concentration of one partner at which half of the binding sites on the other are occupied at equilibrium, for simple one-to-one binding. Low readings indicate higher affinity, high ones lower affinity.

What all share (test): SPR (Biacore 8K), IgG captured on anti-human Fc, aSyn monomer injected
(SPR reads the build-up and loss of mass on a sensor chip optically.)

The target in assay [1] is T1, human alpha-synuclein monomer (human, UniProt P37840 1-140).
For assay [2], the target named is T1, human alpha-synuclein monomer. The source holds these as a separate data set.
Assay [3] has the same target. The source holds these as a separate data set.

Substitutions are numbered along the chain they refer to. Where two headings read alike, the source gives them in different places.

B1: Chimeric 20H4 (antibody, human IgG1, kappa, V domains shown)
VH: AVQLVESGGGLVQPKESLKISCAASGFTFSNAAMYWVRQAPGKGLELLARIRTKPNNYATYHADSVKGRFTISRDDSQSMVYLHMGNLKTEDTAMYYCTADMATGDYWGPGVMVTVSS
VL: DIQMTQSPPVLSVSVGDRVTLSCKASQNINKNLDWYQQKHGEAPKPLIYSTNNLQTGVPSRFSGSGSGTDYTLTISSLQPEDVATYYCYQYKSAWTFGGGTKLELRR
notes: also called Chi 20H4; chimeric 20H4 control
B1 displayed a dissociation constant Kd in assay [1] of 2.96 nM.

B2: HC2_LC2 (antibody, V domains shown)
VH: EVQLVESGGGLVQPGGSLRLSCAASGFTFSNAAMYWVRQAPGKGLELVSRIRTKPNNYATYHADSVKGRFTISRDNSKNTLYLQMNSLRAEDTAVYYCTADMATGDYWGQGTLVTVSS
VL: DIQMTQSPSSLSASVGDRVTITCKASQNINKNLDWYQQKPGKAPKPLIYSTNNLQTGVPSRFSGSGSGTDFTLTISSLQPEDFATYYCYQYKSAWTFGQGTKVEIK
notes: humanized 20H4 IgG
B2: the results for the Kd in assay [2] and in assay [1] were 3.95 nM and 2.33 nM, respectively.

B3: HC3_LC2 (antibody, V domains shown)
VH: B2 VH with L81V
VL: B2 VL
notes: humanized 20H4 IgG
As for B3, in assay [1], the dissociation constant Kd was determined as 1.63 nM.

B4: HC5_LC1 (antibody, V domains shown)
VH: B2 VH with V48L, S49A, N76D, L81V
VL: B2 VL with P46L
notes: humanized 20H4 IgG
B4: the affinity in assay [1], expressed as Kd, was 1.97 nM.

B5: HC6_LC_k3_6 (antibody, V domains shown)
VH: B2 VH with N76D
VL: EIVMTQSPATLSLSPGERATLSCKASANINKQLDWYQQKPGQAPRPLIYSTNNLKTGIPARFSGSGSGTDFTLTISSLQPEDFAVYYCYQYKSAWTFGQGTKVEIK
In assay [3], B5 yielded a dissociation constant (Kd) of 0.14 nM.

B6: HC2_LC3 (antibody, V domains shown)
VH: B2 VH
VL: B2 VL with F71Y
notes: humanized 20H4 IgG
With B6, the dissociation constant (Kd) in assay [1] was 6.59 nM.

B7: HC6_LC_k3_7 (antibody, V domains shown)
VH: B2 VH with N76D
VL: B5 VL with A27Q, N30S, K31N, Q32Y
With B7, binding in assay [3] was characterised by a dissociation constant (Kd) of 0.22 nM.

B8: HC2_LC6 (antibody, V domains shown)
VH: B2 VH
VL: B5 VL with A27Q, Q32N, K55Q, I58V, F71Y
notes: humanized 20H4 IgG
Consider B8, for which the equilibrium dissociation constant (Kd) in assay [1] turned out to be 5.27 nM.

B9: HC6_LC_k3_11 (antibody, V domains shown)
VH: B2 VH with N76D
VL: B5 VL with A27Q, N30S, K31N
Take B9: the dissociation constant (Kd) in assay [3] stood at 0.24 nM.

B10: HC6_LC_k3_8 (antibody, V domains shown)
VH: B2 VH with N76D
VL: B5 VL with A27Q, N28G, N30S, K31N, Q32Y
For B10, the Kd in assay [3] amounted to 0.22 nM.

B11: HC5_LC3 (antibody, V domains shown)
VH: B2 VH with V48L, S49A, N76D, L81V
VL: B2 VL with F71Y
notes: humanized 20H4 IgG
Regarding B11, the dissociation constant Kd in assay [1] is 5.17 nM.

B12: HC2_LC1 (antibody, V domains shown)
VH: B2 VH
VL: B2 VL with P46L
notes: humanized 20H4 IgG
Consider B12, for which, in assay [1], the Kd was 3.21 nM.

B13: HC3_LC4 (antibody, V domains shown)
VH: B2 VH with L81V
VL: B5 VL with A27Q, Q32N, P46L, K55Q
notes: humanized 20H4 IgG
On to B13, for which the dissociation constant Kd in assay [1] was found to be 9.08 nM.

B14: HC6_LC_k3_13 (antibody, V domains shown)
VH: B2 VH with N76D
VL: B5 VL with A27Q, K31A, Q32N
For B14, binding in assay [3] was characterised by a dissociation constant (Kd) of 0.17 nM.

B15: HC6_LC_k3_9 (antibody, V domains shown)
VH: B2 VH with N76D
VL: B5 VL with A27Q, N28G, N30S, K31N, Q32Y, D34A
Take B15: in assay [3], the Kd came out at 0.17 nM.

B16: HC3_LC6 (antibody, V domains shown)
VH: B2 VH with L81V
VL: B5 VL with A27Q, Q32N, K55Q, I58V, F71Y
notes: humanized 20H4 IgG
B16 showed a Kd in assay [1] of 2.74 nM.

B17: HC3_LC5 (antibody, V domains shown)
VH: B2 VH with L81V
VL: B5 VL with A27Q, Q32N, K55Q
notes: humanized 20H4 IgG
The molecule B17 came in with an equilibrium dissociation constant (Kd) in assay [1] of 2.4 nM.

B18: HC5_LC5 (antibody, V domains shown)
VH: B2 VH with V48L, S49A, N76D, L81V
VL: B5 VL with A27Q, Q32N, K55Q
notes: humanized 20H4 IgG
With B18, in assay [1], the dissociation constant Kd came out at 2.46 nM.

B19: HC3_LC3 (antibody, V domains shown)
VH: B2 VH with L81V
VL: B2 VL with F71Y
notes: humanized 20H4 IgG
Consider B19, for which the Kd in assay [1] was found to be 5.2 nM.

B20: HC5_LC4 (antibody, V domains shown)
VH: B2 VH with V48L, S49A, N76D, L81V
VL: B5 VL with A27Q, Q32N, P46L, K55Q
notes: humanized 20H4 IgG
In assay [1], B20 showed a Kd of 8.48 nM.

B21: HC2_LC4 (antibody, V domains shown)
VH: B2 VH
VL: B5 VL with A27Q, Q32N, P46L, K55Q
notes: humanized 20H4 IgG
As to B21, the affinity in assay [1], expressed as Kd, was 9.78 nM.

B22: HC6_LC_k3_12 (antibody, V domains shown)
VH: B2 VH with N76D
VL: B5 VL with A27Q, K31D, Q32N
In assay [3], B22 yielded a Kd of 0.15 nM.

B23: HC3_LC1 (antibody, V domains shown)
VH: B2 VH with L81V
VL: B2 VL with P46L
notes: humanized 20H4 IgG
In assay [1], B23 registered a Kd of 2.12 nM.

B24: HC6_LC_k3_5 (antibody, V domains shown)
VH: B2 VH with N76D
VL: B5 VL with A27Q
Turning to B24, the affinity in assay [3], expressed as Kd, was 0.21 nM.

B25: HC6_LC_k3_10 (antibody, V domains shown)
VH: B2 VH with N76D
VL: B5 VL with A27Q, N30S, K31N, Q32D
Molecule B25 gave a Kd in assay [3] of 0.17 nM.

B26: HC2_LC5 (antibody, V domains shown)
VH: B2 VH
VL: B5 VL with A27Q, Q32N, K55Q
notes: humanized 20H4 IgG
In turn, B26 registered a Kd in assay [1] of 4.11 nM.

B27: HC6_LC_k3_4 (antibody, V domains shown)
VH: B2 VH with N76D
VL: B5 VL with A27Q, K31E, Q32N
In assay [3], B27 gave a dissociation constant Kd of 0.18 nM.

B28: HC5_LC2 (antibody, V domains shown)
VH: B2 VH with V48L, S49A, N76D, L81V
VL: B2 VL
notes: humanized 20H4 IgG
Molecule B28 yielded a Kd in assay [1] of 1.56 nM.

B29: HC5_LC6 (antibody, V domains shown)
VH: B2 VH with V48L, S49A, N76D, L81V
VL: B5 VL with A27Q, Q32N, K55Q, I58V, F71Y
notes: humanized 20H4 IgG
As for B29, in assay [1], the dissociation constant Kd came out at 2.78 nM.
